From patent US20130101582A1, “Tiki1 and Tiki2, Wnt Inhibitors” (CHILDREN'S MEDICAL CENTER CORPORATION, priority 2010, published 2013)
One block for each molecule: values may come before it.

Assays:
[1] = system: nuclear beta-catenin; assay: Wnt-induced nuclear beta-catenin accumulation in Xwnt8-responding animal cap cells; type: in vivo, Xenopus; conditions: stage 9 animal cap cells neighbouring Xwnt8-expressing cells; 200 pg mRNA
Method: FIGS. 7A-C are each schematics with accompanying bar graphs showing that Tiki1 inhibits Wnt/β-catenin signaling in both Wnt-producing and Wnt-responding cells. 7A, Tiki1 acts in Xwnt8-producing cells. Xwnt8 mRNA (20 pg) was co-injected with Tiki1 or LDLR mRNA (100 pg) into a single blastomere at the 8-cell stage, while S01234-Luciferase (140 pg) plus TK-Renilla (1.25 pg) reporter DNAs were injected into a neighboring blastomere. 7B, Tiki1 acts in Xwnt8-responding cells. S01234-Luciferase and TK-Renilla reporter DNAs were co-injected with Tiki1 or LDLR mRNA in a single blastomere, while Xwnt8 mRNA was injected into a neighboring blastomere. Luciferase readings were normalized to Renilla. 7C, Tiki1 reduces nuclear beta-catenin levels in Xwnt8-responding cells. […] Only cells within the distance of five cell bodies from Xwnt8-expressing cells were counted in any given field. […]
Secondly Wnt-induced nuclear beta-catenin accumulation was monitored. […] In confocal microscopy Xwnt8-expressing cells were traced by RFP (red), whereas Wnt-responding cells that expressed Tiki1 or LDLR were traced by FLD (green), and naive cells descended from uninjected blastomeres lacked green or red fluorescence. […]

[2] = biological target: T1, Recombinant human WNT3A protein (Homo sapiens, UniProt P56704); assay: In vitro incubation of recombinant WNT3A with purified protein, Triton X-114 phase separation; type: biochemical; conditions: purified protein incubated with recombinant human WNT3A
Method: FIG. 6G is a gel showing that recombinant WNT3A was incubated with Krm2N or Tiki2N purified from WCL (top) or from CM (bottom) and was subjected to Triton X-114 phase separation.
FIG. 6H is a gel showing that Recombinant WNT3A was incubated with Krm2N or Tiki2N or Tiki2NΔ. purified from WCL and was subjected to Triton X-114 phase separation.
(§1) Recombinant human Tiki2N, which is the ectodomain harboring the conserved Tiki domain (FIG. 6J), was purified, via tandem affinity procedures from HEK293T cell extracts or CM.

[3] = biological target: Wnt3a (Mus musculus, UniProt P27467); assay: Triton X-114 phase separation of Wnt3a secreted from Tiki-expressing cells; type: cell-based; parameters: expressed in transfected cells; host or cells: mouse L cells (Wnt3a-expressing); HEK293T; conditions: HEK293T cells
Description: FIG. 6A is a gel showing that Tiki inactivates Wnt3a by regulating Wnt3a acylation/palmitoylation. A Triton X-114 phase separation experiment is shown in 6A. […] T, total; Aq, aqueous; De, detergent.
FIG. 6B is a gel showing that Wnt3a secreted from Tiki1 or Tiki2 but not GFP-expressing HEK293T cells partitioned in the aqueous phase.
C77 palmitoylation is required for Wnt3a activity (Willert, K. et al., Nature 423, 448-452 (2003)) and binding to both Fz and LRP6 (Komekado, H. et al., Genes Cells 12, 521-534 (2007); Cong, F. et al., Development 131, 5103-5115 (2004)), while S209 acylation is critical for Wnt3a secretion (Takada, R. et al., Dev Cell 11, 791-801 (2006)). Thus Tiki proteins may affect C77 palmitoylation but not S209 acylation. The palmitate adduct at C77 is the primary contributor to Wnt3a hydrophobicity because palmitoylated Wnt3a is partitioned in the Triton X-114 detergent phase whereas Wnt3a lacking the palmitate is soluble in the aqueous phase (Willert, K. et al., Nature 423, 448-452 (2003); Komekado, H. et al., Genes Cells 12, 521-534 (2007)).

[4] = biological target: T1, Recombinant human WNT3A protein; assay: Acyl-biotinyl exchange (ABE) analysis of WNT3A after in vitro incubation; type: biochemical; conditions: compared with WNT3A incubated with Krm2N
Method: FIG. 6I is a gel showing the results of ABE analysis of WNT3A after in vitro incubation with Krm2N or Tiki2N Biotinylation of WNT3A was much reduced after incubation with Tiki2N compared to that of WNT3A incubated with Krm2N.
Biotinylation of Wnt3a secreted in the presence of Tiki2 was much reduced compared to that of Wnt3a from control cells (FIG. 6C). This reduction of available thioester linkage indicates depalmitoylation of Wnt3a at a cysteine residue, e.g., C77, in the presence of Tiki2
as §1

[5] = system: Super-TOPFLASH (STF) luciferase reporter; assay: Super-TOPFLASH (STF) luciferase reporter induction in STF cells; type: cell-based; conditions: 6-hour treatment; not shown
Method: A high throughput screen (HTS) is used to identify compounds that enhance LRP5/6 signaling as potential therapeutics for osteoporosis or cellular proliferative disorders. We employ a Wnt responsive cell line carrying a Super-TOPFLASH (STF) luciferase reporter (Wnt-responsive) (Major et al. Science. 2007. 316:1043-6). These STF cells grow as an adherent monolayer making them ideally suited for 384-well-plate screening format. […] Different conditions are tested and an acceptable z′ score of 0.5 or above (z′ measures HTS quality and reproducibility (Zhang et al. J Biomol Screen. 1999. 4:67-73)) is achieved.

Wnt3a, sequence (P27467 19-352): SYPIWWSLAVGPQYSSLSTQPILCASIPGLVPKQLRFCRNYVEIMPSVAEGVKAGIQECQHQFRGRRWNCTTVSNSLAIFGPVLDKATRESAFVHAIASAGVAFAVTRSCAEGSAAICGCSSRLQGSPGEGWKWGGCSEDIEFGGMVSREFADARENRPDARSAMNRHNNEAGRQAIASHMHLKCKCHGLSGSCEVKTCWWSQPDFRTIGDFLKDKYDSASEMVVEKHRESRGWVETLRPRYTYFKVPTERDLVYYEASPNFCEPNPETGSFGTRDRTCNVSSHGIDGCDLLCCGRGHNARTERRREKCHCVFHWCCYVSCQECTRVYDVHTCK

Molecule: LDLR: negative control, expressed from injected LDLR mRNA
Cells displaying nuclear beta-catenin [1]: 80%

Partitioning of WNT3A in Triton X-114 phase separation after in vitro incubation [2]: became segregated in the aqueous phase
Biotinylation of WNT3A in ABE assay after in vitro incubation [4]: biotinylated to a much less extent
B1: Tiki2N: Recombinant human Tiki2N, the ectodomain harboring the conserved Tiki domain (protein)
chain: RPQPPDGGQCRPPGSQRDLNSFLWTIRRDPPAYLFGTIHVPYTRVWDFIPDNSKAAFQASTRVYFELDLTDPYTISALASCQLLPHGENLQDVLPHELYWRLKRHLDYVKLMMPSWMTPAQRGKGLYADYLFNAIAGNWERKRPVWVMLMVNSLTERDVRFRGVPVLDLYLAQQAEKMKKTTGAVEQVEEQCHPLNNGLNFSQVLFALNQTLLQQESVRAGSLQASYTTEDLIKHYNCGDLSAVIFNHDTSQLPNFINTTLPPHEQVTAQEIDSYFRQELIYKRNERMGKRVMALLRENEDKICFFAFGAGHFLGNNTVIDILRQAGLEVDHTPAGQAIHSPAPQSPAPSPEGTSTSPAPVTPAAAVPEAPSVTPTAPPEDEDPALSPHLLLPDSLSQLEEFGRQRKWHKRQSTHQRPRQFNDLWVRIEDSTTASPPPLPLQPTHSSGTAKPPFQLSDQLQQQDPPG
modifications: left off: small tags and cut ends
notes: Recombinant human Tiki2N, the ectodomain harboring the conserved Tiki domain
Partitioning of secreted Wnt3a in Triton X-114 phase separation [3]: partitioned exclusively in the aqueous phase

B2: Wnt3a: Wnt ligand added to STF reporter cells (protein)
chain: SYPIWWSLAVGPQYSSLGSQPILCASIPGLVPKQLRFCRNYVEIMPSVAEGIKIGIQECQHQFRGRRWNCTTVHDSLAIFGPVLDKATRESAFVHAIASAGVAFAVTRSCAEGTAAICGCSSRHQGSPGKGWKWGGCSEDIEFGGMVSREFADARENRPDARSAMNRHNNEAGRQAIASHMHLKCKCHGLSGSCEVKTCWWSQPDFRAIGDFLKDKYDSASEMVVEKHRESRGWVETLRPRYTYFKVPTERDLVYYEASPNFCEPNPETGSFGTRDRTCNVSSHGIDGCDLLCCGRGHNARAERRREKCRCVFHWCCYVSCQECTRVYDVHTCK
Induction of the STF reporter [5]: 30-40 folds
